Assay results as given in the supplement of paper PMC10065799, “High-throughput profiling of sequence recognition by tyrosine kinases and SH2 domains using bacterial peptide display” (eLife, 2023).

Key:
Hck = Hck (UniProt P08631); experiment: phosphorylation enrichment, bacterial display (enrichment ratio); higher = better substrate or ligand; peptides without Tyr show the background
c-Src = experiment: as above
Fyn = Fyn (UniProt P06241); experiment: as above
FGFR1 = FGFR1 (UniProt P11362); experiment: as above
Jak2 = Jak2 (UniProt O60674); experiment: as above
FGFR3 = FGFR3 (UniProt P22607); experiment: as above
AncSZ = experiment: as above
Fes = Fes (UniProt P07332); experiment: as above
MERTK = MERTK (UniProt Q12866); experiment: as above
c-Abl (mouse) = experiment: as above
EPHB2 = EPHB2 (UniProt P29323); experiment: as above
EPHB1 = EPHB1 (UniProt P54762); experiment: as above
Fer (mouse) = experiment: as above
Grb2 SH2 = Grb2 SH2 (UniProt P62993); experiment: SH2 binding enrichment of the phosphorylated peptide, bacterial display (enrichment ratio); higher = better substrate or ligand; peptides without Tyr show the background
SHP2-C SH2 = experiment: as above
c-Src SH2 = experiment: as above
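Wherever SH2 binding enrichment of the phosphorylated peptide, bacterial display is given: peptide library displayed on the E. coli surface as eCPX fusions, selected cells deep-sequenced, score is each peptide's frequency after selection divided by its frequency in the input.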
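Wherever phosphorylation enrichment, bacterial display is given: 11-residue human phosphosite peptides and single-mutation variants displayed on the E. coli surface, counted by deep sequencing, each peptide's frequency after selection divided by its frequency in the unselected input library; frequency after pTyr selection over input frequency; kinase dosed for 20-30% of maximal phosphorylation in three min.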

Chain of EPHB1 (P54762 whole entry, looked up): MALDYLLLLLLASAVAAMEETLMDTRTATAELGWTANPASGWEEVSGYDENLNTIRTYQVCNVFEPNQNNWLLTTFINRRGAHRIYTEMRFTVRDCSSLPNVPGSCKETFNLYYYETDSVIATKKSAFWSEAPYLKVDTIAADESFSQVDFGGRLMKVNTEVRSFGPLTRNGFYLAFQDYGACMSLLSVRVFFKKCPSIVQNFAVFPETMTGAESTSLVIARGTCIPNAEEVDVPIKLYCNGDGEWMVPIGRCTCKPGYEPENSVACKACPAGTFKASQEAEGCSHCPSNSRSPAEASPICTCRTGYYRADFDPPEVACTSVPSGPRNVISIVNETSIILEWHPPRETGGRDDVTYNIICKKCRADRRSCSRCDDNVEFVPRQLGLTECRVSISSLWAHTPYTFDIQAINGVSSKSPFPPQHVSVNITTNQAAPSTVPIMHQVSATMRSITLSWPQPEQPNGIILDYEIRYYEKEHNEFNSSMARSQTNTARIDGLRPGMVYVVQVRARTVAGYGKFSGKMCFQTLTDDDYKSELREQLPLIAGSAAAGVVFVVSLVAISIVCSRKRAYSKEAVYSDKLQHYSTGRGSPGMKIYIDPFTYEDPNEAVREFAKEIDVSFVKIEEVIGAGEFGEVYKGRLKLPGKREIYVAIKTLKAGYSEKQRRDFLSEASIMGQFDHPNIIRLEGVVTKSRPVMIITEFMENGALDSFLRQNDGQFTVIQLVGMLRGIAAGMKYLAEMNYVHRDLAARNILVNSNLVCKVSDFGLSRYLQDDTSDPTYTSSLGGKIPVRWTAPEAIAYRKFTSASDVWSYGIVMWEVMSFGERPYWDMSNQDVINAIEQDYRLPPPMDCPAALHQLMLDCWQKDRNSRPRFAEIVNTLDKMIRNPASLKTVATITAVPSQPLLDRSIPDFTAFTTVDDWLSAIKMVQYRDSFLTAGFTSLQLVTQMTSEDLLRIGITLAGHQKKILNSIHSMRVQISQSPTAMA
Chain of FGFR1 (P11362 whole entry, looked up): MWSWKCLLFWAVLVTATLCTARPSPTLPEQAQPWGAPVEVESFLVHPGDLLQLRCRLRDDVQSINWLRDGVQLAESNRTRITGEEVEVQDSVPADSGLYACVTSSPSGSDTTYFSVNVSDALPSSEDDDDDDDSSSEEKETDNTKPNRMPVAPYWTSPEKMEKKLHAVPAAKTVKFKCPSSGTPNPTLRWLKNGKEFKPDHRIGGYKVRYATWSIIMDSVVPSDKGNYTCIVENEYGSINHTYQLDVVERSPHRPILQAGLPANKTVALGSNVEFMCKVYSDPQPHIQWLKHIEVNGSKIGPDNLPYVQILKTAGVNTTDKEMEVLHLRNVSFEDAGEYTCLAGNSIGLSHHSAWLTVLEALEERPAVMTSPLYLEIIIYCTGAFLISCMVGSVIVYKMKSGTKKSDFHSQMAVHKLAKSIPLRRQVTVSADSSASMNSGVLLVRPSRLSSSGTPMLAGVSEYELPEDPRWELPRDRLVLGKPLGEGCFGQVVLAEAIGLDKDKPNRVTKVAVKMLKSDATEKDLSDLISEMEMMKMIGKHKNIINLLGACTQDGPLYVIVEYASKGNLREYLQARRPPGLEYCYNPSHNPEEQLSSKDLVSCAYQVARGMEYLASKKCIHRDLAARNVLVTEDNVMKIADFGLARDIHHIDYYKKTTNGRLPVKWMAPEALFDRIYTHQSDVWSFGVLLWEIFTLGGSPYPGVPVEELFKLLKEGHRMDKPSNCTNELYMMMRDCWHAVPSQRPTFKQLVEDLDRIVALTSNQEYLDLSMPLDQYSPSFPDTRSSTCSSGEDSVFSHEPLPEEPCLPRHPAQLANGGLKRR
Chain of Fes (P07332 whole entry, looked up): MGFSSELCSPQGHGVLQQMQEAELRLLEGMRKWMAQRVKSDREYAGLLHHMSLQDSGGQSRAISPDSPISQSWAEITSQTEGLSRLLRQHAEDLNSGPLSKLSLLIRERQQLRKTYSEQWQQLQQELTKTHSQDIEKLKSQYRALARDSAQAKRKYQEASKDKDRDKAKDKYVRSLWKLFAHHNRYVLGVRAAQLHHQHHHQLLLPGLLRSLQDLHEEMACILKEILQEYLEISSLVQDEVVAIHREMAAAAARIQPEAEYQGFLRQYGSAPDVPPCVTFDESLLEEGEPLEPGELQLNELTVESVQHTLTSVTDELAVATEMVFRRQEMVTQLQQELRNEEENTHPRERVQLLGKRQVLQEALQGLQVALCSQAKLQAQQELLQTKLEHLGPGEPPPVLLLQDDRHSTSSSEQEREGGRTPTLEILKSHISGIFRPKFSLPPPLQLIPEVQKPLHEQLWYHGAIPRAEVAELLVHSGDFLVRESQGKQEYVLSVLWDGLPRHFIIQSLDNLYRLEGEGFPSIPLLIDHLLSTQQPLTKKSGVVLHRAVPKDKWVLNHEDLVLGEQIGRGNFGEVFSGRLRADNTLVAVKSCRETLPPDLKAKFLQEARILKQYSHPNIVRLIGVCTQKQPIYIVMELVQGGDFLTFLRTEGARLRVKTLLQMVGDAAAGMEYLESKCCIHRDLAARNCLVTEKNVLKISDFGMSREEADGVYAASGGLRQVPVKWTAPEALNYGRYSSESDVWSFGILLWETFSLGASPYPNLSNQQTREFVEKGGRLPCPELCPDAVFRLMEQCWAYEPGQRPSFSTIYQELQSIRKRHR
Chain of Jak2 (O60674 whole entry, looked up): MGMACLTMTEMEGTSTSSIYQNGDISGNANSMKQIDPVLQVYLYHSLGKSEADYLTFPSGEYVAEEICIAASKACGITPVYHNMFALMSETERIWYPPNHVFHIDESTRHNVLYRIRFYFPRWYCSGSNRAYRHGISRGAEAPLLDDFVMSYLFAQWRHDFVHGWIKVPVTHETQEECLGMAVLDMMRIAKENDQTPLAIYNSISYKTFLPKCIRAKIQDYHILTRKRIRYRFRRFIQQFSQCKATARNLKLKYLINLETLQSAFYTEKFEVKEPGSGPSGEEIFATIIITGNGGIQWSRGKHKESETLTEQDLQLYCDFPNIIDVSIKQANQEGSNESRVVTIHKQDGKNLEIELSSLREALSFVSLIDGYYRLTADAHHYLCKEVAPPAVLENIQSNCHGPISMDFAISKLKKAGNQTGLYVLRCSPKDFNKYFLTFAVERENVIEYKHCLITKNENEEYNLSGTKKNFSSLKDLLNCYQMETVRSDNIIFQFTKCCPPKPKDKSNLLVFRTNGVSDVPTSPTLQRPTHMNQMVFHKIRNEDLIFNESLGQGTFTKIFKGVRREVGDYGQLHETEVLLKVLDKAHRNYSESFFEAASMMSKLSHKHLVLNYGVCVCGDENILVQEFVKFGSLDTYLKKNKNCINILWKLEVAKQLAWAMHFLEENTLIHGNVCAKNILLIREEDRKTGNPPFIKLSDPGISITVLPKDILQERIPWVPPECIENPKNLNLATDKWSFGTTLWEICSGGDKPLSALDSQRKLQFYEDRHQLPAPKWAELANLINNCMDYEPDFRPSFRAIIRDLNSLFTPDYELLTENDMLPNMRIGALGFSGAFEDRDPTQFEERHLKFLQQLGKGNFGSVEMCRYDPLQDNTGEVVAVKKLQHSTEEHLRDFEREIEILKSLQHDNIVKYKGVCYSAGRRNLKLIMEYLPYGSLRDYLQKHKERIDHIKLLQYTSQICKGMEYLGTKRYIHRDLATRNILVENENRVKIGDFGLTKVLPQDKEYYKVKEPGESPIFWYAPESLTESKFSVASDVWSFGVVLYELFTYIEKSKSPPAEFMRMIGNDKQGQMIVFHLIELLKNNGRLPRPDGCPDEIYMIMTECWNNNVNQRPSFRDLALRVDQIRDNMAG
Chain of EPHB2 (P29323 whole entry, looked up): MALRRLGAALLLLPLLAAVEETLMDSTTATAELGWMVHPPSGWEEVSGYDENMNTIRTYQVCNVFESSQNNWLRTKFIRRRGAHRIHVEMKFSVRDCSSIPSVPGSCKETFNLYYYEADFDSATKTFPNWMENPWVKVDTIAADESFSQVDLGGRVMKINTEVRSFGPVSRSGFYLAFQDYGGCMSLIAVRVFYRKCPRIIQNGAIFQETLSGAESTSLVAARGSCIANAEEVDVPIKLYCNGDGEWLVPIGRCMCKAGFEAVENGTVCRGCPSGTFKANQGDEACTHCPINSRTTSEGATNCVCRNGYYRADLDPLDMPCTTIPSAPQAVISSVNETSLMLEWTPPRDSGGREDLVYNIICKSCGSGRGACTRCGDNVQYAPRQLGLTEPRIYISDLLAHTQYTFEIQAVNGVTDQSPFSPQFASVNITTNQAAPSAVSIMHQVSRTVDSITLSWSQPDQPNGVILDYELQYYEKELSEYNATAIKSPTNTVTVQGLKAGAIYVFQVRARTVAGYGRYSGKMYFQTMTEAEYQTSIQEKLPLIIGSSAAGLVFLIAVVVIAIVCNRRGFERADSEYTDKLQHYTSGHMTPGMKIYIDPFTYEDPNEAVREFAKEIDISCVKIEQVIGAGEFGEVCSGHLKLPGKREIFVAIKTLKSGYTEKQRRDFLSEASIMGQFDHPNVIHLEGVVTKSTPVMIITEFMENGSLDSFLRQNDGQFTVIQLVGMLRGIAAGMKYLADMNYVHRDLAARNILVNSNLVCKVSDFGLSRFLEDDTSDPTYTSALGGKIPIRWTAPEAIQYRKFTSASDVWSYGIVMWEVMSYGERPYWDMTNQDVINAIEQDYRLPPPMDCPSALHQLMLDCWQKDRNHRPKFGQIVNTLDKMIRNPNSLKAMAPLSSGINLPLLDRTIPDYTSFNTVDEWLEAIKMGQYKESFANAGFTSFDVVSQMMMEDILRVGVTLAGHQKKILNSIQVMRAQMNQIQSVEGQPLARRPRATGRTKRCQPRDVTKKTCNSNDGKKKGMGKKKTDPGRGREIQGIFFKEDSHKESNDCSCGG
Chain of Grb2 SH2 (P62993 whole entry, looked up): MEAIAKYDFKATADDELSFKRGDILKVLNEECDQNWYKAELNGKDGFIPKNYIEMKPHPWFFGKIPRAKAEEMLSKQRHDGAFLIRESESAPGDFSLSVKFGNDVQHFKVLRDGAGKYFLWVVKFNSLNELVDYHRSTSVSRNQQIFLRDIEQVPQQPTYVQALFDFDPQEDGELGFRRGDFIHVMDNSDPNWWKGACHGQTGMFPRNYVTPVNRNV

NDHHFYLEGTL [ALDOB_Y223_V222F]
phosphorylation enrichment (Hck): 0.43
phosphorylation enrichment (c-Src): 0.392
phosphorylation enrichment (Fyn): 0.398
phosphorylation enrichment (FGFR1): 0.489
phosphorylation enrichment (Jak2): 0.964
phosphorylation enrichment (FGFR3): 0.696
phosphorylation enrichment (AncSZ): 0.939
phosphorylation enrichment (Fes): 1.19
phosphorylation enrichment (MERTK): 0.409
phosphorylation enrichment (c-Abl (mouse)): 0.646
phosphorylation enrichment (EPHB2): 0.547
phosphorylation enrichment (EPHB1): 0.497
phosphorylation enrichment (Fer (mouse)): 0.498
SH2 binding enrichment (Grb2 SH2): 0.787
SH2 binding enrichment (SHP2-C SH2): 0.745
SH2 binding enrichment (c-Src SH2): 0.67

NELTYYCYKKD [CD59_Y87_C89Y]
phosphorylation enrichment (Hck): 4.17
phosphorylation enrichment (c-Src): 4.48
phosphorylation enrichment (Fyn): 3.84
phosphorylation enrichment (FGFR1): 2.1
phosphorylation enrichment (Jak2): 2
phosphorylation enrichment (FGFR3): 1.98
phosphorylation enrichment (AncSZ): 1.81
phosphorylation enrichment (Fes): 1.51
phosphorylation enrichment (MERTK): 1.77
phosphorylation enrichment (c-Abl (mouse)): 5.45
phosphorylation enrichment (EPHB2): 0.826
phosphorylation enrichment (EPHB1): 0.804
phosphorylation enrichment (Fer (mouse)): 0.692
SH2 binding enrichment (Grb2 SH2): 0.728
SH2 binding enrichment (SHP2-C SH2): 0.505
SH2 binding enrichment (c-Src SH2): 0.482

NGSFLYVIISQ [LRP1B_Y1988_R1987L]
phosphorylation enrichment (Hck): 0.539
phosphorylation enrichment (c-Src): 0.403
phosphorylation enrichment (Fyn): 0.367
phosphorylation enrichment (FGFR1): 0.468
phosphorylation enrichment (Jak2): 1.2
phosphorylation enrichment (FGFR3): 0.88
phosphorylation enrichment (AncSZ): 1.27
phosphorylation enrichment (Fes): 1.44
phosphorylation enrichment (MERTK): 0.468
phosphorylation enrichment (c-Abl (mouse)): 0.931
phosphorylation enrichment (EPHB2): 0.666
phosphorylation enrichment (EPHB1): 0.844
phosphorylation enrichment (Fer (mouse)): 0.663
SH2 binding enrichment (Grb2 SH2): 0.68
SH2 binding enrichment (SHP2-C SH2): 0.546
SH2 binding enrichment (c-Src SH2): 0.47

NHQYDYTFDWT [CSNK1A1_Y294]
phosphorylation enrichment (Hck): 0.543
phosphorylation enrichment (c-Src): 1.62
phosphorylation enrichment (Fyn): 0.66
phosphorylation enrichment (FGFR1): 3.99
phosphorylation enrichment (Jak2): 0.899
phosphorylation enrichment (FGFR3): 2.67
phosphorylation enrichment (AncSZ): 1.38
phosphorylation enrichment (Fes): 0.991
phosphorylation enrichment (MERTK): 1.04
phosphorylation enrichment (c-Abl (mouse)): 0.646
phosphorylation enrichment (EPHB2): 0.767
phosphorylation enrichment (EPHB1): 0.606
phosphorylation enrichment (Fer (mouse)): 0.569
SH2 binding enrichment (Grb2 SH2): 1.07
SH2 binding enrichment (SHP2-C SH2): 0.561
SH2 binding enrichment (c-Src SH2): 3

NKEPRYQEEPP [TJP2_Y479_D482E]
phosphorylation enrichment (Hck): 0.508
phosphorylation enrichment (c-Src): 0.421
phosphorylation enrichment (Fyn): 0.507
phosphorylation enrichment (FGFR1): 0.444
phosphorylation enrichment (Jak2): 0.915
phosphorylation enrichment (FGFR3): 0.685
phosphorylation enrichment (AncSZ): 1.1
phosphorylation enrichment (Fes): 1.18
phosphorylation enrichment (MERTK): 0.501
phosphorylation enrichment (c-Abl (mouse)): 0.907
phosphorylation enrichment (EPHB2): 0.67
phosphorylation enrichment (EPHB1): 0.499
phosphorylation enrichment (Fer (mouse)): 0.43
SH2 binding enrichment (Grb2 SH2): 1.07
SH2 binding enrichment (SHP2-C SH2): 0.644
SH2 binding enrichment (c-Src SH2): 0.568

NLTVNYKKNLI [SQOR_Y259]
phosphorylation enrichment (Hck): 0.389
phosphorylation enrichment (c-Src): 0.43
phosphorylation enrichment (Fyn): 0.351
phosphorylation enrichment (FGFR1): 0.427
phosphorylation enrichment (Jak2): 0.619
phosphorylation enrichment (FGFR3): 0.461
phosphorylation enrichment (AncSZ): 0.669
phosphorylation enrichment (Fes): 1.05
phosphorylation enrichment (MERTK): 0.435
phosphorylation enrichment (c-Abl (mouse)): 0.495
phosphorylation enrichment (EPHB2): 0.401
phosphorylation enrichment (EPHB1): 0.486
phosphorylation enrichment (Fer (mouse)): 0.427
SH2 binding enrichment (Grb2 SH2): 0.916
SH2 binding enrichment (SHP2-C SH2): 0.61
SH2 binding enrichment (c-Src SH2): 0.456

NPQKSYFILLY [WAS_Y83_R86L]
phosphorylation enrichment (Hck): 0.434
phosphorylation enrichment (c-Src): 0.416
phosphorylation enrichment (Fyn): 0.421
phosphorylation enrichment (FGFR1): 1.79
phosphorylation enrichment (Jak2): 1.19
phosphorylation enrichment (FGFR3): 1.38
phosphorylation enrichment (AncSZ): 0.958
phosphorylation enrichment (Fes): 1.19
phosphorylation enrichment (MERTK): 0.396
phosphorylation enrichment (c-Abl (mouse)): 0.719
phosphorylation enrichment (EPHB2): 0.551
phosphorylation enrichment (EPHB1): 0.657
phosphorylation enrichment (Fer (mouse)): 0.437
SH2 binding enrichment (Grb2 SH2): 0.914
SH2 binding enrichment (SHP2-C SH2): 0.827
SH2 binding enrichment (c-Src SH2): 0.573

NPSFNYEIVNR [DYNC1H1_Y3379_YF]
phosphorylation enrichment (Hck): 0.535
phosphorylation enrichment (c-Src): 0.388
phosphorylation enrichment (Fyn): 0.445
phosphorylation enrichment (FGFR1): 0.488
phosphorylation enrichment (Jak2): 1.1
phosphorylation enrichment (FGFR3): 0.666
phosphorylation enrichment (AncSZ): 1.15
phosphorylation enrichment (Fes): 1.19
phosphorylation enrichment (MERTK): 0.387
phosphorylation enrichment (c-Abl (mouse)): 0.588
phosphorylation enrichment (EPHB2): 1.29
phosphorylation enrichment (EPHB1): 2.91
phosphorylation enrichment (Fer (mouse)): 0.514
SH2 binding enrichment (Grb2 SH2): 0.825
SH2 binding enrichment (SHP2-C SH2): 0.753
SH2 binding enrichment (c-Src SH2): 0.574

NREGVYRVFAP [TGFBI_Y537_T538R]
phosphorylation enrichment (Hck): 1.79
phosphorylation enrichment (c-Src): 4.67
phosphorylation enrichment (Fyn): 4.68
phosphorylation enrichment (FGFR1): 0.409
phosphorylation enrichment (Jak2): 0.484
phosphorylation enrichment (FGFR3): 0.495
phosphorylation enrichment (AncSZ): 0.603
phosphorylation enrichment (Fes): 0.556
phosphorylation enrichment (MERTK): 0.533
phosphorylation enrichment (c-Abl (mouse)): 0.636
phosphorylation enrichment (EPHB2): 0.376
phosphorylation enrichment (EPHB1): 0.364
phosphorylation enrichment (Fer (mouse)): 0.397
SH2 binding enrichment (Grb2 SH2): 0.755
SH2 binding enrichment (SHP2-C SH2): 0.774
SH2 binding enrichment (c-Src SH2): 0.436

NSNAAYEESHF [LRIF1_Y714_Q716E]
phosphorylation enrichment (Hck): 0.496
phosphorylation enrichment (c-Src): 0.475
phosphorylation enrichment (Fyn): 0.434
phosphorylation enrichment (FGFR1): 0.443
phosphorylation enrichment (Jak2): 0.87
phosphorylation enrichment (FGFR3): 0.614
phosphorylation enrichment (AncSZ): 0.849
phosphorylation enrichment (Fes): 0.919
phosphorylation enrichment (MERTK): 0.385
phosphorylation enrichment (c-Abl (mouse)): 0.659
phosphorylation enrichment (EPHB2): 0.499
phosphorylation enrichment (EPHB1): 0.483
phosphorylation enrichment (Fer (mouse)): 0.504
SH2 binding enrichment (Grb2 SH2): 0.792
SH2 binding enrichment (SHP2-C SH2): 0.608
SH2 binding enrichment (c-Src SH2): 1.23

NSVLVYRNGDP [DCDC2_Y22_K17N]
phosphorylation enrichment (Hck): 0.492
phosphorylation enrichment (c-Src): 0.591
phosphorylation enrichment (Fyn): 0.443
phosphorylation enrichment (FGFR1): 0.393
phosphorylation enrichment (Jak2): 0.627
phosphorylation enrichment (FGFR3): 0.533
phosphorylation enrichment (AncSZ): 0.621
phosphorylation enrichment (Fes): 0.678
phosphorylation enrichment (MERTK): 0.454
phosphorylation enrichment (c-Abl (mouse)): 0.534
phosphorylation enrichment (EPHB2): 0.463
phosphorylation enrichment (EPHB1): 0.532
phosphorylation enrichment (Fer (mouse)): 0.373
SH2 binding enrichment (Grb2 SH2): 0.773
SH2 binding enrichment (SHP2-C SH2): 0.614
SH2 binding enrichment (c-Src SH2): 0.401

NVADHYGVFKP [ATP6V0D2_Y271_YF]
phosphorylation enrichment (Hck): 3.18
phosphorylation enrichment (c-Src): 4.14
phosphorylation enrichment (Fyn): 4.49
phosphorylation enrichment (FGFR1): 0.443
phosphorylation enrichment (Jak2): 0.404
phosphorylation enrichment (FGFR3): 0.408
phosphorylation enrichment (AncSZ): 0.557
phosphorylation enrichment (Fes): 0.691
phosphorylation enrichment (MERTK): 0.435
phosphorylation enrichment (c-Abl (mouse)): 0.538
phosphorylation enrichment (EPHB2): 0.441
phosphorylation enrichment (EPHB1): 0.3
phosphorylation enrichment (Fer (mouse)): 0.455
SH2 binding enrichment (Grb2 SH2): 1.06
SH2 binding enrichment (SHP2-C SH2): 0.96
SH2 binding enrichment (c-Src SH2): 0.717

NVVVPYEPPEV [TP53_Y220_S215N]
phosphorylation enrichment (Hck): 0.56
phosphorylation enrichment (c-Src): 0.543
phosphorylation enrichment (Fyn): 0.641
phosphorylation enrichment (FGFR1): 0.443
phosphorylation enrichment (Jak2): 1.11
phosphorylation enrichment (FGFR3): 0.69
phosphorylation enrichment (AncSZ): 1.11
phosphorylation enrichment (Fes): 1.15
phosphorylation enrichment (MERTK): 0.493
phosphorylation enrichment (c-Abl (mouse)): 0.768
phosphorylation enrichment (EPHB2): 0.708
phosphorylation enrichment (EPHB1): 0.612
phosphorylation enrichment (Fer (mouse)): 0.58
SH2 binding enrichment (Grb2 SH2): 0.757
SH2 binding enrichment (SHP2-C SH2): 0.607
SH2 binding enrichment (c-Src SH2): 0.742

NYSKMYCNPDA [KNL1_Y489_A486S]
phosphorylation enrichment (Hck): 0.469
phosphorylation enrichment (c-Src): 0.349
phosphorylation enrichment (Fyn): 0.396
phosphorylation enrichment (FGFR1): 0.483
phosphorylation enrichment (Jak2): 0.819
phosphorylation enrichment (FGFR3): 0.521
phosphorylation enrichment (AncSZ): 0.794
phosphorylation enrichment (Fes): 0.914
phosphorylation enrichment (MERTK): 0.414
phosphorylation enrichment (c-Abl (mouse)): 0.566
phosphorylation enrichment (EPHB2): 0.45
phosphorylation enrichment (EPHB1): 0.536
phosphorylation enrichment (Fer (mouse)): 0.435
SH2 binding enrichment (Grb2 SH2): 3.18
SH2 binding enrichment (SHP2-C SH2): 0.819
SH2 binding enrichment (c-Src SH2): 2.63

NYYDLYGGEKF [PTPN11_Y66_D61N]
phosphorylation enrichment (Hck): 5.52
phosphorylation enrichment (c-Src): 4.47
phosphorylation enrichment (Fyn): 5.82
phosphorylation enrichment (FGFR1): 13.4
phosphorylation enrichment (Jak2): 1.97
phosphorylation enrichment (FGFR3): 11.7
phosphorylation enrichment (AncSZ): 1.48
phosphorylation enrichment (Fes): 1.03
phosphorylation enrichment (MERTK): 7.49
phosphorylation enrichment (c-Abl (mouse)): 0.725
phosphorylation enrichment (EPHB2): 12.1
phosphorylation enrichment (EPHB1): 10.6
phosphorylation enrichment (Fer (mouse)): 2.32
SH2 binding enrichment (Grb2 SH2): 1.16
SH2 binding enrichment (SHP2-C SH2): 0.702
SH2 binding enrichment (c-Src SH2): 1.84
